Patent US20130288979A1 (CENTRE NATIONAL DE LA RECHERCHE SCIENTIFIQUE CNRS, published 2013)
Non-standard residues stand in square brackets, D forms with d. No end group written: not given here. Ahx = NCCCCCC(=O)O

T1: His-tagged intracellular region of Fas receptor (UniProt P25445 191-335, limits assumed)
T1 construct: domain: intracellular region; Bought reagent (Sigma); also called intra-cellular region of the Fas receptor (Sigma); not shown: His tag
T1 sequence (looked up): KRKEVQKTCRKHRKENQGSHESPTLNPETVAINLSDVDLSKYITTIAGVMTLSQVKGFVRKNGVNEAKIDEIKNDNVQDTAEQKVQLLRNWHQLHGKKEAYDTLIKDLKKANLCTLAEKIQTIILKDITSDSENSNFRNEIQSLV

B1: ncDAXXp (peptide)
peptide: AKLYVYINELCTVLK
notes: Negative-control DAXX 15mer; the text uses it as Tat-ncDAXXp in the cell assays; also called circled spot at the start of row 41 of the DAXX pepscan
B2: Pip2b-DAXXp (peptide)
peptide: R[Ahx]RR[Ahx]RR[Ahx]RIHILFQN[dR]RMKWHKKKSRKEKKQTGSGPLG-NH2
modifications: not fully specified
notes: 39 residues; holds non-natural residues in the Pip2b part
B3: mDAXXp (peptide)
peptide: KRFRKEKKQLGSGLLG-NH2
modifications: not fully specified; printed as KRFRKEKKQLGSGLLG-NH2
notes: also called mouse homolog of human DAXXp; murine DAXXp
B4: Tat-DAXXp (peptide)
peptide: GRKKRRQRRRPPQKKSRKEKKQTGSGPLG-NH2
notes: Conjugate of the Tat cell penetrating peptide (N-terminal) and DAXXp

Key:
[1] = biological target: T1, His-tagged intracellular region of Fas …; experiment: SPOT pepscan of DAXX (15mers, shift 3) on membrane, probed with His-tagged Fas intracellular region, anti-His(mouse)/anti-mouse-HRP, enzyme-linked blot
[2] = biological target: T1, His-tagged intracellular region of Fas …; experiment: SPR (Biacore), mean of three experiments ± SD
Protocol: Additionally, the potential interaction of the fragments with the intracellular region of the Fas receptor was cross-validated by measuring the binding affinities (Kd) using the surface plasmon resonance (SPR) technique (Biacore Life Science, Sweden).
All experiments are performed on a Biacore instrument. For each condition, the mean value of three independent experiments and the corresponding standard deviation are plotted.

Binder	binding result [1]	Kd [2]
B1	no binding	
KKSRKEKKQTGSGPLG-NH2 (also called DAXX peptide) [DAXXp]		333 µM
B2		0.7 µM
B3		252 µM
B4		13 µM
